In publication PMC10128040, “Structural Elucidation of a Protective B Cell Epitope on Outer Surface Protein C (OspC) of the Lyme Disease Spirochete, Borreliella burgdorferi” (mBio, 2023):

Columns and labels:
[1] = target: recombinant OspC type B (OspCB), residues 38 to 202 (B. burgdorferi strain ZS7) (UniProt Q44977); experiment: crystal structure; OspCB alone (22°C, 100 mM sodium phosphate citrate pH 4.2, 41.9% PEG 600; 1.5 Å) and OspCK alone (4°C, 100 mM Tris pH 8.5, 40% PEG 400, 200 mM LiSO4; 1.9 Å); P2_(1)
[2] = target: recombinant OspC type K (OspCK), residues 38 to 202 (B. burgdorferi strain 297); experiment: as above
[3] = target: T1, biotinylated recombinant OspC type A (OspCA) (Borreliella burgdorferi strain B31, …, UniProt Q07337, biotinylated (site not stated)); experiment: ELISA; capture ELISA: B5 IgG coated at 1 μg/mL in PBS; biotinylated OspC types A, B, K diluted 2-fold from 20 μg/mL; detected with avidin-HRP; details: both partners purified
T1 construct: Outer surface protein C type A, B. burgdorferi strain B31, residues 38 to 201; also called biotinylated OspCA; biotin-tagged recombinant OspC type A; not shown: deca-histidine, N-terminal, cleaved; SUMO, N-terminal, cleaved

[4] = target: T2, biotinylated recombinant OspC type B (OspCB) (Borreliella burgdorferi strain ZS7, …, UniProt Q44977, biotinylated (site not stated)); experiment: as above; details: both partners purified
T2 construct: Outer surface protein C type B, B. burgdorferi strain ZS7, residues 38 to 202; also called biotinylated OspC type B; biotin-tagged recombinant OspC type B; not shown: deca-histidine, N-terminal, cleaved

[5] = target: native OspC type A (OspCA) on the surface of viable B. burgdorferi strain B313 (B. burgdorferi (endogenous in strain B313)) (UniProt Q07337); experiment: flow cytometry on cells; 5 x 10^6 live B. burgdorferi B313 cells incubated with 10 μg/mL chimeric B5 IgG1 at 37°C for 1 h in BSK-II; goat anti-human IgG-Alexa 647; BD FACSCalibur
[6] = target: T1, biotinylated recombinant OspC type A …; experiment: BLI; biotinylated OspCA (3 μg/mL) captured on streptavidin biosensors; MAb B5 100 to 1.56 nM, 5 min association, 30 min dissociation; PBS with 2% BSA; 1:2 bivalent analyte model; apparent; Octet RED96e; details: both partners purified
[7] = target: T3, recombinant OspC type A (OspCA), residues 38 to 201 (B. burgdorferi strain B31, UniProt Q07337); experiment: crystal structure; B5 Fab complexed with OspCA 1:1, 10 mg/mL; sitting drop, 22°C, 100 mM sodium cacodylate pH 6.5, 5% PEG 8K, 40% MPD; 2.7 Å, P2_(1)2_(1)2; details: both partners purified
T3 construct: Outer surface protein C type A, B. burgdorferi strain B31, residues 38 to 201; Homodimer; also called rOspC type A; outer surface protein C; not shown: deca-histidine, N-terminal, cleaved; SUMO, N-terminal, cleaved

[8] = target: the molecule itself; experiment: as above

recombinant OspC type B (OspCB), residues 38 to 202 (from UniProt Q44977 38-202) (domain or fragment)
stoichiometry N [1]: 2

recombinant OspC type K (OspCK), residues 38 to 202 (domain or fragment)
stoichiometry N [2]: 2

B1: chimeric B5 IgG1 (mouse B5 VH and VL on human IgG1 Fc and kappa light chain) (antibody, V domains shown)
VH: EVQLEESGPEQKKPGETVMMSCKASGYTFTDHSMHWVKQAPGKGLKWMGWINTETGEPTCADDFKGRFALSLETSSRTAFLQINNLKNEDTAIYFCIGRWGYYVYWGQGTTLVVSS
VL: DIQMTQSPASLSVSVGESVTIICRASENINSNLAWYQQKQGKPPQLLVYAATNLAGGVPSRFSGSGSGTQYSLKINSLQSEDFGTYYCQHVWGSPWTFGGGTKLEIK
notes: mouse B5 VH, as the VH of the heavy chain of m1; human IgG1 heavy chain constant region from the 'human IgG1 Fc' expression vector; mouse B5 VL, as the VL of the light chain of m1; human kappa light chain constant region from the expression vector; IgG1, kappa; also called chimeric derivative of B5; source: Expi293 cells, transfected, purified; copies: 2 + 2
binding result [3]: binds | binding result [4]: no binding (tested: 20 μg/mL) | MFI [5]: > 3200

B2: B5 IgG (as used for BLI and HX-MS; mouse IgG2a or chimeric IgG1 not told) (antibody, V domains shown)
VH: EVQLEESGPEQKKPGETVMMSCKASGYTFTDHSMHWVKQAPGKGLKWMGWINTETGEPTCADDFKGRFALSLETSSRTAFLQINNLKNEDTAIYFCIGRWGYYVYWGQGTTLVVSS
VL: DIQMTQSPASLSVSVGESVTIICRASENINSNLAWYQQKQGKPPQLLVYAATNLAGGVPSRFSGSGSGTQYSLKINSLQSEDFGTYYCQHVWGSPWTFGGGTKLEIK
notes: mouse B5 VH, as the VH of the heavy chain of m1; mouse B5 VL, as the VL of the light chain of m1; The methods say the chimeric IgG1 was used for dot blot and flow cytometry, which may mean that the mouse IgG2a was used here; also called MAb B5; B5 MAb; copies: 2 + 2
Kd [6]: ~0.2 nM

B3: B5 Fab fragment (Fab, V domains shown)
VH: EVQLEESGPEQKKPGETVMMSCKASGYTFTDHSMHWVKQAPGKGLKWMGWINTETGEPTCADDFKGRFALSLETSSRTAFLQINNLKNEDTAIYFCIGRWGYYVYWGQGTTLVVSS
VL: DIQMTQSPASLSVSVGESVTIICRASENINSNLAWYQQKQGKPPQLLVYAATNLAGGVPSRFSGSGSGTQYSLKINSLQSEDFGTYYCQHVWGSPWTFGGGTKLEIK
notes: VH and CH1 of mouse MAb B5; VL and CL of mouse MAb B5; Fab of the mouse IgG2a MAb B5; also called Fab B5; source: papain digestion of B5 IgG from the CDC; Fc depleted by protein A FPLC; purified by SEC (Superdex 200)
stoichiometry N [7]: 1

B4: recombinant OspC type A (OspCA), residues 38 to 201 (domain or fragment, B. burgdorferi strain B31, UniProt Q07337 38-201, looked up)
chain: KGPNLTEISKKITDSNAVLLAVKEVEALLSSIDEIAAKAIGKKIHQNNGLDTENNHNGSLLAGAYAISTLIKQKLDGLKNEGLKEKIDAAKKCSETFTNKLKEKHTDLGKEGVTDADAKEAILKTNGTKTKGAEELGKLFESVEVLSKAAKEMLANSVKELTSP
notes: Outer surface protein C type A, B. burgdorferi strain B31, residues 38 to 201; Homodimer; also called rOspC type A; outer surface protein C; not shown: deca-histidine, N-terminal, cleaved; SUMO, N-terminal, cleaved
stoichiometry N [8]: 2
